# In IntAct's records for PubMed 9024666:
# B1: Apoptosis regulator ced-9 (Caenorhabditis elegans), P41958 (parent)
# chain: MTRCTADNSLTNPAYRRRTMATGEMKEFLGIKGTEPTDFGINSDAQDLPSPSRQASTRRMSIGESIDGKINDWEEPRLDIEGFVVDYFTHRIRQNGMEWFGAPGLPCGVQPEHEMMRVMGTIFEKKHAENFETFCEQLLAVPRISFSLYQDVVRTVGNAQTDQCPMSYGRLIGLISFGGFVAAKMMESVELQGQVRNLFVYTSLFIKTRIRNNWKEHNRSWDDFMTLGKQMKEDYERAEAEKVGRRKQNRRWSMIGAGVTAGAIGIVGVVVCGRMMFSLK
# partner: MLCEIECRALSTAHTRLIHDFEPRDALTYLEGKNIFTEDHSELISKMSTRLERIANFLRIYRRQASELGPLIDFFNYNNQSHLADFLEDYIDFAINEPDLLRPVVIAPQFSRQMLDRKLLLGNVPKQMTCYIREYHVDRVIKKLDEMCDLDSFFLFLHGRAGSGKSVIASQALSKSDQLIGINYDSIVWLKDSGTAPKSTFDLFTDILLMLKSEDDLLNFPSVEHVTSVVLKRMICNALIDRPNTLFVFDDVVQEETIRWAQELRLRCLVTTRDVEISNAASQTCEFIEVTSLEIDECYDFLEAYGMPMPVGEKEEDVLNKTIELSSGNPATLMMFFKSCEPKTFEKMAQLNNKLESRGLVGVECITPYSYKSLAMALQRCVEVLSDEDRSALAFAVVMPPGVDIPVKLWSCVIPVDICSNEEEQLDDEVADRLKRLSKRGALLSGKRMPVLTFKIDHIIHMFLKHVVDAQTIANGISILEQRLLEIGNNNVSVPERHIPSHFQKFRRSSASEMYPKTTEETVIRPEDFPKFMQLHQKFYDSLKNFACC
# Variants of: B1
# Settings: with ced4_caeel ced-4, P30429
row,effect of a mutation on the interaction,Variant
1,decreasing interaction,Y149N
